Test results from publication PMC4957108.

Experiments:
[1] = biological target: GST-CagA-1CM^E (Helicobacter pylori strain 26695) (UniProt P55980); test: pull-down; quantitative GST pull-down: GST-CagA on beads in a range of concentrations, fixed low concentration of PAR1b (39–364)-FLAG, GST-binding buffer with 0.01% Triton-X, 20 min at 4 °C, unbound PAR1b in the supernatant quantified, binding to GST control subtracted; apparent KD
[2] = biological target: GST-CagA-1CM^W2 (Helicobacter pylori strain 26695) (UniProt P55980); test: as above
[3] = biological target: GST-CagA-1CM^W1 (Helicobacter pylori strain 26695) (UniProt P55980); test: as above
[4] = biological target: CagA-C1164S (Helicobacter pylori strain 26695) (UniProt P55980); test: AUC; sedimentation velocity, 20 °C, 10 mM HEPES pH 7.7, 150 mM NaCl, 1 mM EDTA; 5.5 μM CagA-CS, 11 μM PAR1b (39–364), alone or mixed; c(s) by SEDFIT

| Substance | Kd [1] [µM] | Kd [2] [µM] | Kd [3] [µM] | stoichiometry N (PAR1b per CagA) [4] |
| --- | --- | --- | --- | --- |
| PAR1b (39–364)-FLAG (from UniProt Q7KZI7-14 39-364) (domain or fragment) | 0.0464 | 0.106 | 0.0903 | – |
| PAR1b (39–364) (from UniProt Q7KZI7-14 39-364) (domain or fragment) | – | – | – | 2 |
